Test system: MS2 coat protein
Test: apparent KD of MS2 coat protein; designed switch direction (-1 OFF switch, 1 ON switch): -1; higher = weaker reporter binding
Procedure, shortened: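 Stalled E. coli RNA polymerase transcribed designed RNA switches on Illumina chips, which were then titrated with SNAP-549-labelled MS2 coat protein, doubling from 0.7 or 1.5 nM to 3 µM. Steps lasted from 0.8–1.5 h at the lowest concentration to 10–20 min at the highest. The apparent KD is each design's median over clusters of curve-fitted normalised fluorescence.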

[1] = input ligand: microRNA oligo, concentration not stated
[2] = Eterna round: R95, input ligand: microRNA oligo, concentration not stated
[3] = Eterna round: R95, input ligand: FMN 200 uM
[4] = Eterna round: R95, input ligand: none

| Sequence | apparent KD of MS2 coat protein (input ligand: FMN 200 uM) [nM] | apparent KD of MS2 coat protein (input ligand: none) [nM] | further results |
| --- | --- | --- | --- |
| ACACCGCAAGGAUAUACUUGCGGUGGUGUUCGAAGCUUUCUACUUGAGGAUCACCCAAGUAGAAGGUGCGGUGU [jl-ex2.4.73 ViennaUCT mod] (Eterna round: R97, puzzle: Exclusion 2) | 12.8 | 12.3 | – |
| AAAUAGCGAGGAUAUACUCCAAUAGCAAAUAUUCCCAUGGCACAUGAGGAUCACCCAUGUAGAAGGCGCAGUAA (Eterna round: R97, puzzle: Exclusion 2) | 54.2 | 44.4 | – |
| UUAAAUCAUGUAGGAUAUGCGUGGCGAAGCUAUGCAGAAGGACAUGAGGAUCACCCAUGUGCUUGCGUCUGCGUACAGAUGCUA [JL ENG1 1.12] (Eterna round: R96, puzzle: Exclusion NG 1) | 112 | 63.7 | apparent KD of MS2 coat protein [1]: 52.8 nM |
| UAUUAGCAAGCAAGAUCCUACAUGAGGAUCACCCAUGUGCUCGUCUUAAACGCAGAAUUACUGCGAGCUCGUCUUAU [Winner reversed engineered 25] (Eterna round: R97, puzzle: Sensor, turn-off variant 1) | 579 | 849 | – |
| GCAUGUUGGUAGGAUAUGCAGCGAAAACCGCUAGUAGAAGGAUUGACAUGAGGAUCACCCAUGUGAACCGAAGG [Esesbece] (Eterna round: R97, puzzle: Exclusion 6) | 139 | 36.6 | – |
| GUCUCGUGAGGAUAUCAUGAUUGACUUAAUUUAUUUUAGCGUGAGAAGGCACAUGAGGAUCACCCAUGUGAUUC [Ex4 - 3 - 5] (puzzle: Exclusion 4) | – | – | apparent KD of MS2 coat protein [2]: 17.1 nM |
| UUUUCCAGAGGAUAUGCGAAUAAAUAAAACUUUUUUUUUUAACAUGAGGAUCACCCAUGUAGAAGGCUGCUUUU [Ex2 #27] (Eterna round: R97, puzzle: Exclusion 2) | 27.1 | 30.1 | – |
| AAUAAUAAAGUCAGGAUAUCUAGAGCCUCGGCUCUAGAGAAGGGACAUGAGGAUCACCCAUGUCACUCAAUAAU [BmEx4/3-D2] (Eterna round: R97, puzzle: Brourd's mod of Exclusion 4) | 20.2 | 17.7 | – |
| GGUCAGAUGGUAGGAUAUCCAUAUCGAGUGACCCUUUUAUAACAUGAGGAUCACCCAUGUCGGUGGGAGAAGGGCCGUACGGCG [salish99_ExNG02_R04_018] (Eterna round: R96, puzzle: Exclusion NG 2) | 244 | 224 | apparent KD of MS2 coat protein [1]: 129 nM |
| AUUUAAUUUAAUAAGAUCACAUGAGGAUCACCCAUGUUAUAAUAGGAUAUCAGCUCGUGUAGAGCUGAGAAGGAUUAUAACAUG [ExNG3/9-A3] (Eterna round: R96, puzzle: Exclusion NG 3) | – | – | apparent KD of MS2 coat protein [1]: 22.2 nM |
| AAGAGUAGAGGAUAUACGAAAAAAGAGUCGAAAGACUCGGGACAUGAGGAUCACCCAUGUAGAAGGCUACUCAA [Hyphema Seclusion Mod 62% 5] (Eterna round: R96, puzzle: Exclusion 2) | – | – | apparent KD of MS2 coat protein [1]: 19.4 nM |
| GCCUCACUUGAGGAUCACCCAAGUCAGGAUAUUCACUGAACUACGUAGCAGUUCGGCCGAAGAAGGGAUUCGGG [Azaraqu] (Eterna round: R97, puzzle: Exclusion 1) | 44.5 | 95.1 | – |
| AAUACAAGCUAUUGAUCCCACAUGAGGAUCACCCAUGUUCCUGGCCGUGAGGCUAGGUAAACAAUAGCUCGUCUUAU [Sensor-V1 #42] (Eterna round: R97, puzzle: Sensor, turn-off variant 1) | 91.2 | 99.8 | – |
| GAUUAUGCGAGCUUUAGGGACAUGAGGAUCACCCAUGUUCGUCUUAUUAAUCUAGGUACACUGACAUACCUAAAUCU [JMF 64] (puzzle: Sensor v3, turn-off variant 1) | – | – | apparent KD of MS2 coat protein [3]: 21.3 nM; apparent KD of MS2 coat protein [2]: 30.5 nM; apparent KD of MS2 coat protein [4]: 21 nM |
| CCUCAGAUGUAGGAUAUCGCCCAGACAUUGCGGCGAGAAGGACAAACAUGAGGAUCACCCAUGUUAGUUUAGCA [Eternabot (L2) Solution 92] (Eterna round: R97, puzzle: Exclusion 6) | 257 | 32.3 | – |
| AUAAGUAUAUAGGAUAUCUAGCUGGUAACAGCUAGAGAAGGAUGUACAUGAGGAUCACCCAUGUAAAUCGAUCA [Ex6/10-A2] (Eterna round: R97, puzzle: Exclusion 6) | 18.5 | 18.1 | – |
| CAAAAGGUAGGAUAUACGAAAAAAAAGGGUAGAAAAAAAACACAUGAGGAUCACCCAUGUAGAAGGACCAAAAU [salish99_ex2_r3_054] (puzzle: Exclusion 2) | – | – | apparent KD of MS2 coat protein [3]: 90.9 nM; apparent KD of MS2 coat protein [2]: 24.3 nM; apparent KD of MS2 coat protein [4]: 22.5 nM |

| Sequence | apparent KD of MS2 coat protein (input ligand: FMN 200 uM) [nM] | apparent KD of MS2 coat protein (input ligand: none) [nM] | further results |
| --- | --- | --- | --- |
| UACAUGAGGAUCACCCAUGUUUUGUCGUGUAUGGUAUUUAUCUAGGAUAUCAAUCUAUUUAUGUAUGAGAAGGAGAAUAUUAAU [JMF's solution 55] (Eterna round: R96, puzzle: Exclusion NG 3) | 42.3 | 41.1 | apparent KD of MS2 coat protein [1]: 28.9 nM |
| AGAUCUAGGACAGGAUAUAUGGAUGUCUUCAUCGAAGAUGAAGACAUUACAUGAGGAUCACCCAUGUAGAAGGGUCCUAGAUCA [Omei Exc(NG) 2Av3] (Eterna round: R96, puzzle: Exclusion NG 2) | 17.3 | 22.2 | apparent KD of MS2 coat protein [1]: 17.5 nM |
| AAAUUCAGAGGAUAUGCGCAUAGAUAAGACUUUGUUUCUUAACAUGAGGAUCACCCAUGUAGAAGGCUGUACAA [Ex2 #68] (Eterna round: R97, puzzle: Exclusion 2) | 16.1 | 13.4 | – |
| CCGUGCACGCUGCGGUCCUACAUGAGGAUCACCCAUGUGGUCUGGUGGCGUGGGUCGCCGGACUUGGCUCGUCUUGU [salish99_S_TOV1_R5_020] (Eterna round: R97, puzzle: Sensor, turn-off variant 1) | 19.7 | 20.5 | – |
| ACAAGCUCUGUGGGUGGUGACAUGAGGAUCACCCAUGUUUUGCUCGUCUUGUGGGCCCGGGCCCGCGGCCCGGGCCC [-41.4, -70.3, A 12%] (Eterna round: R97, puzzle: Sensor, turn-off variant 1) | 516 | 978 | – |
| UGUGCGUAUGUGAGGAUAUGCUGGUCCUUGGAUCGGCAGAAGGCACAUGAGGAUCACCCAUGUGGUGUCGUACU [salish99_Bmod_ex4_083] (puzzle: Brourd's mod of Exclusion 4) | – | – | apparent KD of MS2 coat protein [2]: 235 nM |
| AAUAACAGAGGAUAUACUGUUUUAUGUGUUUAUUGUUUUAAACAUGAGGAUCACCCAUGUAGAAGGCUGAGUAA [JMF 32] (puzzle: Exclusion 2) | – | – | apparent KD of MS2 coat protein [2]: 33.5 nM |
| CUAGAUCUUCGGAUCUAGUACAUGAGGAUCACCCAUGUGACGAGUAGAUCCUCAAACAAGCUUUUUGCUCGUCUUAU [Sensor v3 - Turn-off variant 1 - 20] (puzzle: Sensor v3, turn-off variant 1) | – | – | apparent KD of MS2 coat protein [3]: 43.3 nM; apparent KD of MS2 coat protein [2]: 9.51 nM; apparent KD of MS2 coat protein [4]: 111 nM |
| AGGUGCUUCUGGAAACAUGAGGAUCACCCAUGUUGAGUUAGCGAGGAUAUCGGUAACAAUUGUUAUGAGAAGGCGCAAACCAGA [Ex NG3 #36] (Eterna round: R96, puzzle: Exclusion NG 3) | 17 | 20.7 | apparent KD of MS2 coat protein [1]: 12.5 nM |
| GGUACUCAAAGAGUACCAAUACGAACAUGAGGAUCACCCAUGUAGGAUAUGCUACUCAAAGAGUAGCAGAAGGAUAUGAUGUAU [Far Half Aptamer v17] (Eterna round: R96, puzzle: Exclusion NG 3) | – | – | apparent KD of MS2 coat protein [1]: 27.6 nM |
| GGAUCGUAUGUGAGGAUAUACCACUGGAUACAGUGGUAGAAGGCACAUGAGGAUCACCCAUGUCCUAUCGAUCC [Fiskers BMX 4 - 54] (puzzle: Brourd's mod of Exclusion 4) | – | – | apparent KD of MS2 coat protein [2]: 132 nM |
| AAAAUACAUGAGGAUCACCCAUGUAAGGAUAUACGCCUAGUACCGAUGGUACUACAAAGUAGAAGGUACAUGGC [Arma] (puzzle: Exclusion 1) | – | – | apparent KD of MS2 coat protein [3]: 17.1 nM; apparent KD of MS2 coat protein [2]: 12.3 nM; apparent KD of MS2 coat protein [4]: 14.1 nM |
| UCACGGGACUGAGGAUAUACAUGAACCAUGGUUGUAGAAGGCAGAAGGUUGGAUCAUACACUAAACAUGAGGAUCACCCAUGUU [JR_ExcNG1_Sub028] (Eterna round: R96, puzzle: Exclusion NG 1) | 16.4 | 21.8 | apparent KD of MS2 coat protein [1]: 15.7 nM |
| CAGGGCAUGCGAGGAUAUAGCAACAUGAGGAUCACCCAUGUAUAAGGGUGUCCAAGGCAUGCGCGCUAGAAGGCGCUGGUUCUC [Gemadi] (Eterna round: R96, puzzle: Exclusion NG 2) | 343 | 116 | apparent KD of MS2 coat protein [1]: 64.6 nM |
| CCAUGCAGUGUGAGGAUAUGCUGGUCCUUGGAUCAGCAGAAGGCACAUGAGGAUCACCCAUGUGAAUAGCGUGG [Mat - Exclusion 4 - JL Mod - D84] (puzzle: Brourd's mod of Exclusion 4) | – | – | apparent KD of MS2 coat protein [2]: 36.6 nM |
| CCGCGUGUCGGACUGGGUUACAUGAGGAUCACCCAUGUUCGGUAAACUAAGCGUUUGCUCGUCUAAACCAUUCUCGA [Eternabot (Original) Solution 24] (Eterna round: R97, puzzle: Sensor, turn-off variant 1) | 175 | 205 | – |
| CUGCCGAGAGGAUAUACUAAGCGAAGAGCCUCAUAAAAGUUACAUGAGGAUCACCCAUGUAGAAGGCUUGGGAG [Eternabot (Original) Solution 38] (Eterna round: R97, puzzle: Exclusion 2) | 104 | 54.4 | – |

— the supplement of paper PMC9170038
